Measurements: the supplement of paper PMC10567573

B1: ESRRG (parent)
chain: YSCPATNECEITKRRRKSCQACRF

Variants of: B1
Assay: protein stability index of a GFP-peptide fusion (GPS, HEK-293T) (PSI 1-6); higher = more stable
Conditions: c terminus: a fixed tail appended
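Further: lentivirally expressed fusions sorted by FACS into six bins by GFP to DsRed ratio, PSI derived from sequencing read proportions per bin multiplied by bin number.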

Protein stability index of substitutions, site by site:
Q20: E 3.62, Y 2.81, M 2.86, F 1.91, C 2.67, P 3.39, D 3.7, A 3.52, R 3.49, G 3.53, V 2.78, S 3.02, H 2.67, I 2.2, W 2.21, T 2.93, L 2.53, N 3.52, K 3.92
F24: D 4.07, R 3.41, A 4, T 4.12, G 4.18, K 4.41, C 3.62, H 4.18, W 2.88, V 4, N 4.28, Y 3.53, L 3.61, E 4.19, Q 3.7, M 3.89, P 3.51, S 3.89, I 3.67
A21: E 3.43, R 3.49, P 3.29, S 3.23, G 3.44, F 2.94, V 3.2, D 3.49, K 3.63, H 4.06, W 2.55, T 3.47, L 2.31, I 2.54, Y 3.16, M 2.46, C 3.66, Q 3.29, N 3.41
C22: L 3.71, P 3.86, W 2.94, D 4.07, E 3.49, N 4.09, Q 3.67, V 3.66, A 3.47, S 3.9, H 3.5, G 3.38, I 3.42, Y 3.01, R 3.87, M 2.9, T 3.58, F 2.81, K 3.97
R23: H 2.96, K 3.33, G 3.79, N 3.92, P 3.7, Q 3.69, C 3.71, V 2.46, A 3.1, I 2.59, M 3.04, E 4.02, D 3.88, T 3.01, S 3.22, Y 3.3, F 2.33, L 2.73, W 2.09
S18: D 3.6, L 3.19, F 2.9, E 3.43, P 3.66, I 3.16, Q 3.6, T 3.59, A 3.58, W 2.93, H 3.48, V 3.08, N 3.44, Y 2.87, C 3.31, M 3.38, R 3.8, K 3.51, G 2.74
C19: A 3.83, S 3.54, E 3.84, I 2.94, M 3.42, W 3.15, P 3.35, G 3.55, V 3.27, L 3.14, K 3.94, H 3.69, N 3.82, Q 3.78, D 4.09, F 3.17, Y 3.44, R 3.72, T 3.85
